Results published in patent publication US20250129165A1.

Key:
[1] = target: human BTN3A as expressed on human cells (PBMCs, Daudi Burkitt's lymphoma cells, AML cells, monocytes) (human) (UniProt O00481); experiment: cell-based or functional assay
[2] = target: human BTN3A as expressed on human cells (PBMCs, Daudi Burkitt's lymphoma cells, AML cells, monocytes) (human) (UniProt O00481); experiment: flow cytometry on human PBMCs
[3] = target: human BTN3A as expressed on human cells (PBMCs, Daudi Burkitt's lymphoma cells, AML cells, monocytes) (human) (UniProt O00481); experiment: flow cytometry on Daudi Burkitt's lymphoma cells
[4] = target: cynomolgus BTN3A as expressed on cynomolgus PBMCs (cynomolgus); experiment: flow cytometry on cynomolgus PBMCs
[5] = target: human BTN3A1 antigen (Sino Biological cat. no. 15973-H08H) (human) (UniProt O00481); experiment: SPR, Biacore T200 multi-cycle kinetics; antibody captured on Protein A, BTN3A1 as analyte
Chain of human BTN3A1 antigen (Sino Biological cat. no. 15973-H08H) (human) (O00481 30-254 limits assumed): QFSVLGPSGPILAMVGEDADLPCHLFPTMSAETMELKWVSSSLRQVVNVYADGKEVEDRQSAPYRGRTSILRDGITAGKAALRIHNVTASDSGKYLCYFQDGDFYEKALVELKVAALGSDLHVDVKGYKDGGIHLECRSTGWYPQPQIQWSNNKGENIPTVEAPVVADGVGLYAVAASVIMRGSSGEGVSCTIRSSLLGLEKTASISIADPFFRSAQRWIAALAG

## mAb 20.1, parent murine antibody
[1]
  Functional assay (AML resistant) (γδT cell-based, EC50, µg/mL): 0.18 µg/mL
  Functional assay (AML sensitive) (γδT cell-based, EC50, µg/mL): 0.05 µg/mL
  Functional assay (Daudi) (γδT cell-based, EC50, µg/mL): 0.02 µg/mL
  Vγ9Vδ2 T cell degranulation with PBMCs from C. burnetii patients, 20.1 at 10 µg/ml: 24.1%
  Vγ9Vδ2 T cell degranulation with PBMCs from healthy donors, 20.1 at 10 µg/ml: 3.24%
  Vγ9Vδ2 T cell degranulation, Mean % CD107+ cells, monocytes infected with C. burnetii Guiana, 20.1 at 10 µg/ml (isotype 37.23) (% CD107+ cells): 71.5
  Vγ9Vδ2 T cell degranulation, Mean % CD107+ cells, monocytes infected with C. burnetii NM1, 20.1 at 10 µg/ml (isotype 42.1) (% CD107+ cells): 67.2
  Vγ9Vδ2 T cell degranulation, Mean % CD107+ cells, non stimulated monocytes, 20.1 at 10 µg/ml (isotype 8.59) (% CD107+ cells): 45.8
[2]
  EC50: 3.02 µg/mL
[3]
  EC50: 1.19 µg/mL
[4]
  EC50: 4.06 µg/mL
[5]
  Kd: 0.234 nM
